PMC8894380, “A multi-factor trafficking site on the spliceosome remodeling enzyme BRR2 recruits C9ORF78 to regulate alternative splicing” (Nature Communications, 2022)

T1: BRR2 C-terminal cassette (BRR2^CC, residues 1282-2136) (human, UniProt O75643 1282-2136)
T1 construct: BRR2 (SNRNP200), human, C-terminal helicase cassette, residues 1282-2136; The His10 tag is named only for the peptide SPOT array; also called His10-BRR2^CC
T1 sequence (looked up): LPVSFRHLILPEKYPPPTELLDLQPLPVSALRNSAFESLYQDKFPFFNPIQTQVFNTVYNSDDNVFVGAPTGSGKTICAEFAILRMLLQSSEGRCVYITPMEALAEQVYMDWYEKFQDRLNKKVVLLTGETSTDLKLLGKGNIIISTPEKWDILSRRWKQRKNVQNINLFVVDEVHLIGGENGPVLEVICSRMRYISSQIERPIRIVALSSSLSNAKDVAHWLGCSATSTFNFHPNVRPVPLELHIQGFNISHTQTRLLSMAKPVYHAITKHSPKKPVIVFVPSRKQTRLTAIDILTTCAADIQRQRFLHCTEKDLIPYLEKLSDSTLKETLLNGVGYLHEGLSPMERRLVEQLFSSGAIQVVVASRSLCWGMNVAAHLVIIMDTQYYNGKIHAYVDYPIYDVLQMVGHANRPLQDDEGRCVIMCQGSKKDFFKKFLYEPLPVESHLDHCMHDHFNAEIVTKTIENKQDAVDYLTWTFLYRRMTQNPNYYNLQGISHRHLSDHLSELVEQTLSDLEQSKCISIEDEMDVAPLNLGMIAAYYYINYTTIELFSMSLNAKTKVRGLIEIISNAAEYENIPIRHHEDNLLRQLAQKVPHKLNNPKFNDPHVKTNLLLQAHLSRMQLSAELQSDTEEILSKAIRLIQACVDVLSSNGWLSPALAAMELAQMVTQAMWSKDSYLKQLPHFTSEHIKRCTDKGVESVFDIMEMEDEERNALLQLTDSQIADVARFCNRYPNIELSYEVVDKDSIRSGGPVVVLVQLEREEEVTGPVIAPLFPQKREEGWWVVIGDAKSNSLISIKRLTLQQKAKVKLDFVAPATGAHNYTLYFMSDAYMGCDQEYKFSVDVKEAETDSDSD


Key:
Details in all cases: both partners purified
[1] = molecular target: T2, BRR2 helicase region (BRR2^HR, residues 395-2129) (human, UniProt O75643 395-2129); assay: cryo-EM structure; complexes purified by SEC, 20 mM Tris-HCl pH 8.0, 150 mM NaCl, 1 mM DTT, 5 mg/ml, 0.15% n-octylglucoside; Titan Krios 300 kV
T2 construct: For the cryoEM complex with C9ORF78 the co-purified proteins were treated with TEV protease and recycled on Ni-NTA; also called His10-BRR2^HR; source: insect cells
T2 sequence (O75643 395-2129): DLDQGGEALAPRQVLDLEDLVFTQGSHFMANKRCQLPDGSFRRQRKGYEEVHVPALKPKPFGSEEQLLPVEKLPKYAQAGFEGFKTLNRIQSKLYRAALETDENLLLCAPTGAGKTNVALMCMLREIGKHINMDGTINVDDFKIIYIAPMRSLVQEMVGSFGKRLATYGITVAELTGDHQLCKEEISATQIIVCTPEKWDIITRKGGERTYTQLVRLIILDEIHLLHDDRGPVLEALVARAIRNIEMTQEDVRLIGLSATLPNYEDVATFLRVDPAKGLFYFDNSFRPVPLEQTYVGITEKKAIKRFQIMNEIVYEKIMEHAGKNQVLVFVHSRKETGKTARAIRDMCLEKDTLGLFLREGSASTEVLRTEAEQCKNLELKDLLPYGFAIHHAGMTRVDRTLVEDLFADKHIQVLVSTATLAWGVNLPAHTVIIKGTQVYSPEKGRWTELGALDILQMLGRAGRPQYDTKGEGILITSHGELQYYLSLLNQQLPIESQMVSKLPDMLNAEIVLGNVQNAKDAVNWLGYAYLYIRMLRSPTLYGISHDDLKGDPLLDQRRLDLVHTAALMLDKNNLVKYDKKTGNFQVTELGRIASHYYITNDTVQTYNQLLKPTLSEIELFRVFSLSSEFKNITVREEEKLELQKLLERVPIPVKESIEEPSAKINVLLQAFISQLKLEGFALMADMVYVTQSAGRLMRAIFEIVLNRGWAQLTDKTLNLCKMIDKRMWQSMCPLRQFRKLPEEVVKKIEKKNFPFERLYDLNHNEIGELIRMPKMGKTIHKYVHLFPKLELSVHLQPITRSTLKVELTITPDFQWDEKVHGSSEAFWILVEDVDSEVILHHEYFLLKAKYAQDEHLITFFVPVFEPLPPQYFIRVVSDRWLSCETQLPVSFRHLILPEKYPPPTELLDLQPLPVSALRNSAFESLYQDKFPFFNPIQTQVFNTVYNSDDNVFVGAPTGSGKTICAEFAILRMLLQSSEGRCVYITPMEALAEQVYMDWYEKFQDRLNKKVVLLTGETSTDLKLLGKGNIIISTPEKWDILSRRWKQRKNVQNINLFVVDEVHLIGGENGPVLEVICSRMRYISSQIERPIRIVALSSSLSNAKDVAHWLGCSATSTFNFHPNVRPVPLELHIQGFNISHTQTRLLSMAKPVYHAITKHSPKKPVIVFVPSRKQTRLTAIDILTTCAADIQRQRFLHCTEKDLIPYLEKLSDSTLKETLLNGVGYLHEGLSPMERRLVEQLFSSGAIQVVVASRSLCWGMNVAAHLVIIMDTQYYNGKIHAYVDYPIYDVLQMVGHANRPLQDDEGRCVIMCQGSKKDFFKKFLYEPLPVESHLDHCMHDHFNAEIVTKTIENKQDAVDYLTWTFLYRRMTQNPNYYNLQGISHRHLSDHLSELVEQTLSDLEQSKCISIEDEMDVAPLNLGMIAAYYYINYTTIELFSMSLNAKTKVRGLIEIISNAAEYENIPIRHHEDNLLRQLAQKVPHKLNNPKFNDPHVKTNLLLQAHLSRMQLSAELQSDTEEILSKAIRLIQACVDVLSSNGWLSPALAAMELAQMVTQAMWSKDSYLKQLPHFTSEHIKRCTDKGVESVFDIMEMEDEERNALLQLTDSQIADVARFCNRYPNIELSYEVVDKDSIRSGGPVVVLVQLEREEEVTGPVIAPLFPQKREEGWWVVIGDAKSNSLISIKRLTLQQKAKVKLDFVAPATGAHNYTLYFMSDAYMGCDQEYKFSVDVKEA

[2] = molecular target: T3, BRR2^HR-PRPF8^Jab1 complex (human, UniProt O75643 395-2129; Q6P2Q9 2064-2335); assay: SEC; competition: BRR2^HR with equimolar PRPF8^Jab1 and FBP21^116-376 10 min on ice, then with or without equimolar GST-C9ORF78 for 10 min; analytical SEC as above
T3 construct: PRPF8, human, Jab1/MPN-like domain, residues 2064-2335; source: purified BRR2^HR and PRPF8^Jab1 mixed in equimolar amounts

[3] = molecular target: T2, BRR2 helicase region (BRR2^HR, residues …); assay: SEC; analytical SEC, Superdex 200 increase 3.2/300, 20 mM Tris-HCl pH 8.0, 200 mM NaCl, 1 mM DTT; 75 ug BRR2 construct or PRPF8^Jab1 with 1.5-fold molar excess of partner, pre-incubated 10 min on ice; fractions by SDS-PAGE
[4] = molecular target: T4, full-length BRR2 (BRR2^FL) (human, UniProt O75643 1-2136); assay: as above
T4 construct: BRR2 (SNRNP200), human, full length; The His10 tag is named only for the peptide SPOT array; also called His10-BRR2^FL; SNRNP200

[5] = molecular target: T1, BRR2 C-terminal cassette (BRR2^CC, …); assay: as above

Binder	binding result [1]	binding result [2]	binding result [3]	other results
FBP21^200-376 (domain or fragment, human, UniProt O75554 200-376, looked up) HTSDLPSSKVNENSLGTLDESKSSDSHSDSDGEQEAEEGGVSTETEKPKIKFKEKNKNSDGGSDPETQKEKSIQKQNSLGSNEEKSKTLKKSNPYGEWQEIKQEVESHEEVDLELPSTENEYVSTSEADGGGEPKVVFKEKTVTSLGVMADGVAPVFKKRRTENGKSRNLRQRGDDQ	binds	–	–	–
FBP21^116-376 (domain or fragment, human, UniProt O75554 116-376, looked up) KKKRKKDPSKGRWVEGITSEGYHYYYDLISGASQWEKPEGFQGDLKKTAVKTVWVEGLSEDGFTYYYNTETGESRWEKPDDFIPHTSDLPSSKVNENSLGTLDESKSSDSHSDSDGEQEAEEGGVSTETEKPKIKFKEKNKNSDGGSDPETQKEKSIQKQNSLGSNEEKSKTLKKSNPYGEWQEIKQEVESHEEVDLELPSTENEYVSTSEADGGGEPKVVFKEKTVTSLGVMADGVAPVFKKRRTENGKSRNLRQRGDDQ	–	binds	–	–
PRPF8 Jab1 domain (PRPF8^Jab1; residues 2064-2335) (domain or fragment, PRPF8, human, Jab1/MPN-like domain, residues 2064-2335; also called Jab1/MPN-like domain) not shown	–	–	binds	–
His6-GST-C9ORF78 (natural protein, human, C9ORF78, human, 34 kDa; Tag cleavage led to degradation and was omitted for functional analyses in vitro; also called GST-C9ORF78^wt; source: E. coli BL21 RIL (pETM30), purified (Glutathione Sepharose, SEC); not shown: His6, N-terminal, kept; GST, N-terminal, kept) MPVVRKIFRRRRGDSESEEDEQDSEEVRLKLEETREVQNLRKRPNGVSAVALLVGEKVQEETTLVDDPFQMKTGGMVDMKKLKERGKDKISEEEDLHLGTSFSAETNRRDEDADMMKYIETELKKRKGIVEHEEQKVKPKNAEDCLYELPENIRVSSAKKTEEMLSNQMLSGIPEVDLGIDAKIKNIISTEDAKARLLAEQQNKKKDSETSFVPTNMAVNYVQHNRFYHEELNAPIRRNKEEPKARPLRVGDTEKPEPERSPPNRKRPANEKATDDYHYEKFKKMNRRY	–	binds	binds	binding result [4]: binds; binding result [5]: binds
C9ORF78 (His6/GST tag cleaved, co-purified with BRR2^HR) (natural protein, human, C9ORF78, human; the four N-terminal and 231 C-terminal residues not located in the map; 4 + 54 + 231 residues add up to 289, the length that I recall for the whole protein; not shown: His6, N-terminal, cleaved; GST, N-terminal, cleaved) MPVVRKIFRRRRGDSESEEDEQDSEEVRLKLEETREVQNLRKRPNGVSAVALLVGEKVQEETTLVDDPFQMKTGGMVDMKKLKERGKDKISEEEDLHLGTSFSAETNRRDEDADMMKYIETELKKRKGIVEHEEQKVKPKNAEDCLYELPENIRVSSAKKTEEMLSNQMLSGIPEVDLGIDAKIKNIISTEDAKARLLAEQQNKKKDSETSFVPTNMAVNYVQHNRFYHEELNAPIRRNKEEPKARPLRVGDTEKPEPERSPPNRKRPANEKATDDYHYEKFKKMNRRY	binds	–	–	–
GST-C9ORF78^F8A (natural protein, human, C9ORF78, human, with F8A; source: E. coli BL21 RIL (pETM30), purified (Glutathione Sepharose, SEC); not shown: His6, N-terminal, kept; GST, N-terminal, kept) MPVVRKIARRRRGDSESEEDEQDSEEVRLKLEETREVQNLRKRPNGVSAVALLVGEKVQEETTLVDDPFQMKTGGMVDMKKLKERGKDKISEEEDLHLGTSFSAETNRRDEDADMMKYIETELKKRKGIVEHEEQKVKPKNAEDCLYELPENIRVSSAKKTEEMLSNQMLSGIPEVDLGIDAKIKNIISTEDAKARLLAEQQNKKKDSETSFVPTNMAVNYVQHNRFYHEELNAPIRRNKEEPKARPLRVGDTEKPEPERSPPNRKRPANEKATDDYHYEKFKKMNRRY	–	–	binds	–
